The values that follow come from article PMC6058786 (Haematologica, 2018).

Experiment [1] deals with T1, purified Pin1 WW-domain (UniProt Q13526 5-39). The experiment in a line: ITC.
The target in experiment [2] is T1, purified Pin1 WW-domain. The experiment can be described thus: ITC. This is another data set of the same source. (ITC needs no label: the signal is the heat of the interaction.)
The target in experiment [3] is T1, purified Pin1 WW-domain. The experiment in a line: NMR titration.

T1 sequence (Q13526 5-39): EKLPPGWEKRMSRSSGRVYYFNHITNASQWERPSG

As usually defined, the Kd is the free concentration of one partner at which half of the binding sites on the other are occupied at equilibrium, for simple one-to-one binding. High values mean a looser complex, low ones a tighter complex. In experiment [1], HKCRKAGVGQSWKENSPLNVS [unphosphorylated TFCD (ITC)] came in with a Kd of 1530 µM.
Consider HKCRKAGVGQSWKENSPLNVS (not fully specified; phosphoserine at 258) [Ser258-phosphorylated TFCD-encoding peptide (ITC)], for which the Kd in experiment [2] is roughly 137 µM.
As to HKCRKAGVGQSWKENSPLNVS (not fully specified; phosphoserine at 253; phosphoserine at 258) [double phosphorylated pSer253/pSer258 TFCD peptide], binding in experiment [3] was characterised by a dissociation constant (Kd) of 133 ± 13 µM.
